The DeepSol protein solubility set

Assay: soluble on expression in E. coli; label from the status in PepcDB or PDB records

Soluble on expression in E. coli, not soluble:
MSFDLSWYGVPVEEEAKEEEAIVYGIPNNPELEQIIPAKFHSFVNEVIGDYNTLSDEEFWKKYNLREIWFDVKEYEEDNKAKNMLGTIIVFLLVEKEYILQLDYKEDLVDYIEDIDNYWGKEEVKLISFEVDNDQQYYAYVPKTAAIDSLYEVKLTEVEKIEEV, MSFGYLIATSQPCELLTKSRGETFSLIMDKMDLWIYFRFCEGNIYTIRKNETESCLTERGGEWLKHIYEFNRGSFIFSYVLLKKRESEENFTEIVLKSIKNNKILTVKVRSGLHFDLRNIYRIEM, MSFMPAIVGPIAINSISGGVVNFGDSFYLSPKSSSKSALGSGAGNTGDFLLLNNAVNATNYIDPDVNDQDMVGNGLEHHHHHH, MSFNDLYKASIYTMLGSIYAPSGGVIAAPTTSLPEVEGGKRNWDYRFAWVRDSSIIAEALLEAGSIVEARRIINFLLSLINFSSKPFYYPLYTIEGTIPPPERELRWLSGYKNSKPVRIGNGASSQIQLDIEGFFISALYKYVKMTNDQVFLKDVFSKVKYIGDWISENWSLKDSGIWEDRGSPQHYTHSKIMMWIALDKIGKLANLIGYADIWAKEREKLRNWIFTNCVKNNYFIRYCGNTDDVDSSLLSAPLYGFIEVSDSTFINTLTKIENDLKTDVFVKRYKTDFMGEAKHPFLLTTVWLARVYMRLGKIDSAIEILNKINKVSRELHLVGEHVDVEKGEFTGNFPQIFVHAQLVIAIKELNDTLTDKNIILEHHHHHH, MSFQVSVAVNDGPFQKKSVTPNTTIGDLNNDAILIWKDTAIVYDISDESKNFGPTVTLEQLGVTQISMVYIYTTAFPCPSGDLRSIVPAQVRLISQFASAASSIFNGQSSSSAQSAQRTRRVEQDDEGEKSMFSRKLLDSPATFKALSENMFFRLKNEPHKLGYGLPELVERFLAKKDMTYKEFEQMFRSYVEEEVHKEEIIKNNPNSAEAKMFLEAKRNKELIDEQYLHSMTHHPEDMIAVTMLYINLTINGVPVKAFIDSGAQKSIMSMACAERCGLNGLIDRRFQSMARGVGGTEKIEGKIHLCDVKVEDAHFSCPFEVMARREMDLLIGLNVLRKHGCCINLKTSRLEFGNGTTTPFLQSNEIDSHLKEIMALPEEEMQFEDGST, MSFYYSNIVSNQEKTFYDAQFSMSSLKQVSPISGSPQRDDSFNISPASSSPDMLVETWKSDEENAKSESPSSQSTTATSTNDDLFASVGTWEVHANENNITVNKKKKRSRKIRRLRDVQDSDEERPKPVIALVPLVPNPFCVSDSLLSKLGPVATKRRRVCFNPTISFHYYCVDK, MSGAEQQQIVPANNGDENWKAGLNLPAKDRRFKTADVTDTKGVEFEDFCLGRDLLMGIFEKGWEKPSPIQEASIGVALTGQDILARAKNGTGKTGAYCIPVIEKIQPALKAIQAMVIVPTRELALQTSQICVELSKHIQLKVMVTTGGTDLRDDIMRLNGTVHLVIATPGRILDLMEKGVAKMEHCKTLVLDEADKLLSQDFQGILDRLINFLPKERQVMLYSATFPNTVTSFMQKHMHKPYEINLMEELTLLGVTQYYAFVQEKQKVHCLNTLFRKLQINQSIIFCNSTQRVELLAKKITEIGYSCYYIHSKMAQNHRNRVFHDFRQGNCRNLVCSDLLTRGIDIQAVNVVINFDFPRNAETYLHRIGRSGRFGHLGVAINLITYEDRHTLRRIEQELRTRIEPIPKTVDPKLYVADQQLVDAADETTA, MSGAPPPPPPYNQAYNAYPQPPQGVYTVQPGVPIGQGVQPAYAVYYQQPQTVIVDDCHHHHHHREREHGGGGGEMCCLAGLMACLCFLCLSK, MSGFRKDELIPVIIDIHGEKRKMFEDIADTVLRRVLDEEENECPPIESRGSSTSSFSTTPSSSASPLSINQLLSSSFSQPPAPQLPVPLAFNPFQLALYQSLVANNTLAFPVFGGPPSIFPLLVPPPQPQPTVESIELLKILQNMLAKQKK, MSGISIIENAVLKPTKREVAEQWLGYFEHIGSYRFVDPDGQVGIESLIGFDLDRRLVQMPVTYRSAEFDAEHTLTTMDHSVLGTRYVSNAMGDPVAVREYIRVILEADNGAQRSDGKVSVLDVRGSGNREEKLTLGEVRILEATRQRAVGYVRIDGTLRGFVLRVPHLLVPENSPRLGHNISPMRLNGSVVMSPKTVLIAAELSWHDI
